This note sets out measurements from article PMC3828182.

The target of test [1] is FLAG-tagged HPV51 chimera 4 L2 (Ch4L2-FLAG) (human papillomavirus type 51, Ma strain | human papillomavirus type 51, Nu strain) (UniProt P26539).
In test [2] the target is FLAG-tagged HPV51 chimera 5 L2 (Ch5L2-FLAG) (human papillomavirus type 51, Ma strain | human papillomavirus type 51, Nu strain) (UniProt P26539).

In the case of “transport protein particle complex subunit 8 (TRAPPC8) (from UniProt Q9Y2L5 1-1435) (natural protein)”, the percent of HeLa cells GFP-positive by flow cytometry after inoculation with HPV51 PsV containing the (untagged) Ch4L2 and a GFP-expression plasmid in test [1] turned out to be 4%. Moreover, the percent of HeLa cells GFP-positive by flow cytometry after inoculation with HPV51 PsV containing the (untagged) Ch5L2 and a GFP-expression plasmid in test [2] was determined as 80%.
